Assay results published in FireProtDB (doi:10.1002/pro.398).

Conditions: Gallus gallus, Thermal, CD, whole UniProt chain shown

B1: Ovalbumin wild type, P01012 (protein)
chain: MGSIGAASMEFCFDVFKELKVHHANENIFYCPIAIMSALAMVYLGAKDSTRTQINKVVRFDKLPGFGDSIEAQCGTSVNVHSSLRDILNQITKPNDVYSFSLASRLYAEERYPILPEYLQCVKELYRGGLEPINFQTAADQARELINSWVESQTNGIIRNVLQPSSVDSQTAMVLVNAIVFKGLWEKAFKDEDTQAMPFRVTEQESKPVQMMYQIGLFRVASMASEKMKILELPFASGTMSMLVLLPDEVSGLEQLESIINFEKLTEWTSSNVMEERKIKVYLPRMKMEEKYNLTSVLMAMGITDVFSSSANLSGISSAESLKISQAVHAAHAEINEAGREVVGSAEAGVDAASVSEEFRADHPFLFCIKHIATNAVLFFGRCVSP
- Tm (pH 7, Phosphate 10 mM): 69.8 °C
- Tm (pH 10, Glycine-NaOH 0.1 M): 78.9 °C
